Experiment [1] concerns the target Cleaved human epiregulin (human) (UniProt O14944). Description: ELISA: biotinylated ligand (20 nM) captured on neutravidin plate, antibody titrated 1:3, anti-human kappa-AP detection, OD405 [panel B]. For orientation: An ELISA detects its analyte on a solid surface through an enzyme-linked reagent.
For the next experiment, the target named is TGFα (human) (UniProt P01135). The experiment is described as above.
For experiment [2], the target named is Cleaved human epiregulin (human) (UniProt O14944). The experiment in a line: cell-based or functional assay.
In experiment [3] the target is Cleaved rat epiregulin (rat) (UniProt Q9Z0L5). The experiment in a line: cell-based or functional assay.
Experiment [4] has as its target Cleaved cynomolgus monkey epiregulin (cynomolgus monkey). Description: cell-based or functional assay.
Experiment [5] has as its target Cleaved rabbit epiregulin (rabbit). The experiment in a line: cell-based or functional assay.

Broadly, the EC50 (read off the curve) is the concentration giving half of the maximal effect.

For LY3016859 (antibody), the results for the EC50 (read off the curve) (in experiment [1]; with TGFα (human)) were 0.03 µg/mL and 0.02 µg/mL, respectively. For the same substance, the IC50, neutralization of epiregulin induced luciferase reporter activity in C166-AP1-Luciferase cells in experiment [2] worked out at 25.9 nM; in experiment [3], 720 nM; in experiment [4], 8.6 nM; in experiment [5], 11 nM. The same substance showed an IC50, neutralization of human epiregulin induced phospho-ERK induction in TGW cells in experiment [2] of 14.6 nM.

The values above are taken from patent US20250101091A1.
